Article PMC9972320

Molecular target: MSI1 RRM12 (human) (UniProt O43347)
Experiment: ITC
Conditions: ITC: 20 mM HEPES pH 7.5, 150 mM NaCl, 3 mM MgCl2, 25 C
[1] = 30 uM RNA in cell, 600 uM protein titrant

Sequence of MSI1 RRM12 (human) (O43347 20-191): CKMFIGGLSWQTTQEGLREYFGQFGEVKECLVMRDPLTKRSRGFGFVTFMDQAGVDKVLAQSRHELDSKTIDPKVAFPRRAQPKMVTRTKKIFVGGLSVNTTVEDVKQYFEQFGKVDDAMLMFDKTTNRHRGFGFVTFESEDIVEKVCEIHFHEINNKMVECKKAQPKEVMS

Substance	Kd [1]	Kd	other results
DENV4 3'UTR	336 µM	–	–
JEV 3'UTR	218 µM	–	–
MVEV 3'UTR	265 µM	–	–
USUV 3'UTR	301 µM	–	–
ZIKV 3'SL	–	65.5 µM	–
ZIKV 3'UTR WT	–	2.5 µM	–
ZIKV xrRNA1	–	–	Kd ([…]): 94.6 µM
ZIKV xrRNA2 deltaP4	–	5.7 µM	–
